The record followed here is patent US20120201751A1.

Experiment [1] addresses Recombinant human CD44/Fc (R&D Systems, Minneapolis) (human) (UniProt P16070). Kind of experiment: SPR (Biacore T100), rhCD44/Fc amine-coupled to CM5, antibody injected 0.67-667 nM, 1:1 model.
The target is the same in experiment [2]. Kind of experiment: SPR (Biacore T100), recombinant human CD44/Fc amine-coupled to a CM5 chip, 1:1 interaction model; column head Kd (1/s).
Experiment [3] has the same target. Kind of experiment: SPR (Biacore T100), recombinant human CD44/Fc amine-coupled to a CM5 chip, 1:1 interaction model; column head Ka (1/Ms).

B1: (hu)ARH460-16-2 variant HV1/KV1 (antibody, V domains shown)
VH: EVQLVESGGGLVQPGGSLRLSCAASGFDFSRYWMSWVRQAPGKGLVWVGEVNPDSTSINYTPSLKDRFTISRDNAKNTLYLQMNSLRAEDTAVYYCTRPNYYGSRYHYYAMDYWGQGTLVTVSS
VL: DIQMTQSPSSLSASVGDRVTITCRASQDINNYLNWYQQKPGKAPKLLIYYTSRLHSGVPSRFSGSGSGTDFTFTISSLQPEDIATYYCQQGSTLPFTFGQGTKLEIK
In the case of B1, the dissociation constant Kd in experiment [1] came out at 6.32 nM. In experiment [2], the koff worked out at 0.000225 s⁻¹. For the same molecule, the kon in experiment [3] came to 35400 M⁻¹ s⁻¹.
